According to US20110105412A1:

Molecular target: gp120 YU2 (HIV, type R5 isolate YU2) (UniProt P35961)
Assay: SPR, indirect; rising concentrations of mCD4 mixed with unlinked HS12Lb, co-incubated with 40 nM gp120 YU2; readout: gp120 bound to the mAb 17b surface [bottom panel]

Substance: miniCD4 peptide (mCD4)
- EC50 (read off the curve): 6 nM
